This test has as its target T1, extracellular domain (residues 21-643) of the human ErbB3 receptor (Homo sapiens, UniProt P21860).
T1 construct: ErbB3 receptor (HER3), human, extracellular domain, residues 21-643; The ErbB3 gene fragment is followed by a hexahistidine tag and a FLAG-tag; also called HER3; extracellular domain of ErbB3; source: CHO-T-HC cells, transfected (pEE vector), purified from culture fluid (HisTrap HP, Superdex 200 SEC)
In words: SPR; Biacore T200; ErbB3 extracellular domain immobilised on CM5 chip by amine coupling; BCD090-M2 injected at 1 uM down to 0.49 nM in 10 mM HEPES pH 7.4, 0.15 M NaCl, 50 ug/ml BSA; 37°C; equilibrium fit of response against concentration; mean of three experiments. To be noted: both partners purified.

T1 sequence (P21860 21-643): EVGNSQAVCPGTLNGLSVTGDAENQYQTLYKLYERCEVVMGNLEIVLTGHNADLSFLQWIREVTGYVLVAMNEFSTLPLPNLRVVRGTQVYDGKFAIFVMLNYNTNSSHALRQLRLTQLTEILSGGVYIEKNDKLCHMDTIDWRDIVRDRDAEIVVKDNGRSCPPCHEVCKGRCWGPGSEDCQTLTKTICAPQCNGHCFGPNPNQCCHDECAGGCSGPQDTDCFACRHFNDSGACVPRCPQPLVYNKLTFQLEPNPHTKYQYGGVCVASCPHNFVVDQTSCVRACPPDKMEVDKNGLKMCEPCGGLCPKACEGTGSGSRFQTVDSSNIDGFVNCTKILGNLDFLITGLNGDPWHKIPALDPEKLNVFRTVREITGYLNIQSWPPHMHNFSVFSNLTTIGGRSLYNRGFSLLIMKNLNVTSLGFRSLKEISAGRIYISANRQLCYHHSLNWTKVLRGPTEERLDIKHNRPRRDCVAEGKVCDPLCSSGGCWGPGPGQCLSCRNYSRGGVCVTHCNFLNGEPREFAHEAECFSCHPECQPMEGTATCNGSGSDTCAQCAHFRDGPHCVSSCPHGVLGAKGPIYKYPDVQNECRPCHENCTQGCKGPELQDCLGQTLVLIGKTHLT

B1: llama VHH antibody BCD090-M2 (VHH)
VHH: QVQLVQSGGGLVQAGGSLRLSCAFSGRTFSMYTMGWFRQAPGKEREFVAANRGRGLSPDIADSVNGRFTISRDNAKNTLYLQMDSLKPEDTAVYYCAADLQYGSSWPQRSSAEYDYWGQGTTVTVSS
notes: 128 residues in the PDB entries; a single additional N-terminal glycine is left from the TEV recognition site; Selected by phage display from immunized llamas; also called VHH fragment of the antibody BCD090-M2; not shown: His6, N-terminal, cleaved; SUMO, N-terminal, cleaved
The term Kd denotes a measure of binding affinity in units of concentration. B1 came in with a Kd of 0.015 ± 0.001 µM.

These data come from publication PMC6097396, “Crystal structures of a llama VHH antibody BCD090-M2 targeting human ErbB3 receptor” (F1000Research, 2018).
